We go through nine variants from IntAct's records for PubMed 31515488.

The labels stand for the following.
B1: Centrosomal protein of 55 kDa (Homo sapiens), Q53EZ4 (parent)
chain: MSSRSTKDLIKSKWGSKPSNSKSETTLEKLKGEIAHLKTSVDEITSGKGKLTDKERHRLLEKIRVLEAEKEKNAYQLTEKDKEIQRLRDQLKARYSTTTLLEQLEETTREGERREQVLKALSEEKDVLKQQLSAATSRIAELESKTNTLRLSQTVAPNCFNSSINNIHEMEIQLKDALEKNQQWLVYDQQREVYVKGLLAKIFELEKKTETAAHSLPQQTKKPESEGYLQEEKQKCYNDLLASAKKDLEVERQTITQLSFELSEFRRKYEETQKEVHNLNQLLYSQRRADVQHLEDDRHKTEKIQKLREENDIARGKLEEEKKRSEELLSQVQFLYTSLLKQQEEQTRVALLEQQMQACTLDFENEKLDRQHVQHQLHVILKELRKARNQITQLESLKQLHEFAITEPLVTFQGETENREKVAASPKSPTAALNESLVECPKCNIQYPATEHRDLLVHVEYCSK
partner: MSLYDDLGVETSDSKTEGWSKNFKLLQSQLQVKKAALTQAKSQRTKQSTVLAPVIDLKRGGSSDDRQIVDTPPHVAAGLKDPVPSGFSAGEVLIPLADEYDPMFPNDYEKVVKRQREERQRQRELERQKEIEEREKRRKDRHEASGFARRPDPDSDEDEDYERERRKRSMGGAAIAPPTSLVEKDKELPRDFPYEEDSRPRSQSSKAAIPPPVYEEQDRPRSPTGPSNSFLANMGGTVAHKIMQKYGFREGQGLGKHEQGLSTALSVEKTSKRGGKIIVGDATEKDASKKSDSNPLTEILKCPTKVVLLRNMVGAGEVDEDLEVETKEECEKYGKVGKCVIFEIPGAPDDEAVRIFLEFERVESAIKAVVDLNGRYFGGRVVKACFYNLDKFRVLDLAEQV
B2: Uncharacterized protein C12orf50 (Homo sapiens), Q8NA57 (parent)
chain: MEMQQNCSISCFWETQPLGCVKISCIFYHSKPRNINGLFLPPSSNITLQKEIQEGIPLQSQSQEPLKPQENISRPIHHPLVLKTNFEEEEEVDEQNDASSLWTKTPEEIEEKRAIKEMCYKSGEYYRFHTPPDILSSKSMTPTAEKQLEKPLENGSELQEGDSLTVPTKLSQYERQGEIKTSLHGKPKTDIAAFENGGGDCYVPQRVIFLGVDESEALTEEKEITISKCSNTKDNKDSPHPKHSLTTRLVPTTHVLNATENISMKCREDPSSMNDVQPVKKPHFKGVKKRKWIYDEPQNFPNSGMQRAVQAPRPQNKMSYHRNNKNRNAENASYIHVQRDAVRTVALNAPSRSRPTHGSYNKVHANREPKPNLSPDKYTSTSYNDSAWRKRIPFSKTYSKSEKIYPEPRRNGSK
partner: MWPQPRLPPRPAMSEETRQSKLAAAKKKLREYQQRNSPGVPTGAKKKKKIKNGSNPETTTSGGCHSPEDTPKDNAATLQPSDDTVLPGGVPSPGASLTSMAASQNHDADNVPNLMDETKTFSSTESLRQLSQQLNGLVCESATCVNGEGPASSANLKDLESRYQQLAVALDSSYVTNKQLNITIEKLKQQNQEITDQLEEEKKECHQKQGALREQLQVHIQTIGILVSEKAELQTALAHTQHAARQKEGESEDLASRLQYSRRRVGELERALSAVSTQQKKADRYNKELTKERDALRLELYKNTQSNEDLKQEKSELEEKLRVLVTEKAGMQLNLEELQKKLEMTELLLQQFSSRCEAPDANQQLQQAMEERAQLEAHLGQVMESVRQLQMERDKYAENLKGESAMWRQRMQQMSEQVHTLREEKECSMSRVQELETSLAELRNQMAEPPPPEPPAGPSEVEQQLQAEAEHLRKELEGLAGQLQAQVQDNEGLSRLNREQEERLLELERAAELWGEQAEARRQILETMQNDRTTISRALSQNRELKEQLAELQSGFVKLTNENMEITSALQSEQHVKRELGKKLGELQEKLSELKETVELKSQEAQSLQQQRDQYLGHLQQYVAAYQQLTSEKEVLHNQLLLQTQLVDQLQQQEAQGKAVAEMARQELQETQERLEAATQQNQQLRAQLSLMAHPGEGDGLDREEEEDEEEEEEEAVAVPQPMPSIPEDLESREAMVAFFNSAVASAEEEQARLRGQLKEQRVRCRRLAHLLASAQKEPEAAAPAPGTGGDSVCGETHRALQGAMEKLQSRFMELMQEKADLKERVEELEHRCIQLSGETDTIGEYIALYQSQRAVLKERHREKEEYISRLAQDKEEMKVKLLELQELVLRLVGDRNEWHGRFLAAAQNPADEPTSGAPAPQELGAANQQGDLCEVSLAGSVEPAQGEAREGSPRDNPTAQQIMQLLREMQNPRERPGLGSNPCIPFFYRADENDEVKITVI
B3: 2'-5'-oligoadenylate synthase 1 (Homo sapiens), P00973 (parent)
chain: MMDLRNTPAKSLDKFIEDYLLPDTCFRMQINHAIDIICGFLKERCFRGSSYPVCVSKVVKGGSSGKGTTLRGRSDADLVVFLSPLTTFQDQLNRRGEFIQEIRRQLEACQRERAFSVKFEVQAPRWGNPRALSFVLSSLQLGEGVEFDVLPAFDALGQLTGGYKPNPQIYVKLIEECTDLQKEGEFSTCFTELQRDFLKQRPTKLKSLIRLVKHWYQNCKKKLGKLPPQYALELLTVYAWERGSMKTHFNTAQGFRTVLELVINYQQLCIYWTKYYDFKNPIIEKYLRRQLTKPRPVILDPADPTGNLGGGDPKGWRQLAQEAEAWLNYPCFKNWDGSPVSSWILLAESNSADDETDDPRRYQKYGYIGTHEYPHFSHRPSTLQAASTPQAEEDWTCTIL
B4: "Peptide-N(4)-(N-acetyl-beta-glucosaminyl)asparagine amidase" (Homo sapiens), Q96IV0 (parent)
chain: MAAAALGSSSGSASPAVAELCQNTPETFLEASKLLLTYADNILRNPNDEKYRSIRIGNTAFSTRLLPVRGAVECLFEMGFEEGETHLIFPKKASVEQLQKIRDLIAIERSSRLDGSNKSHKVKSSQQPAASTQLPTTPSSNPSGLNQHTRNRQGQSSDPPSASTVAADSAILEVLQSNIQHVLVYENPALQEKALACIPVQELKRKSQEKLSRARKLDKGINISDEDFLLLELLHWFKEEFFHWVNNVLCSKCGGQTRSRDRSLLPSDDELKWGAKEVEDHYCDACQFSNRFPRYNNPEKLLETRCGRCGEWANCFTLCCRAVGFEARYVWDYTDHVWTEVYSPSQQRWLHCDACEDVCDKPLLYEIGWGKKLSYVIAFSKDEVVDVTWRYSCKHEEVIARRTKVKEALLRDTINGLNKQRQLFLSENRRKELLQRIIVELVEFISPKTPKPGELGGRISGSVAWRVARGEMGLQRKETLFIPCENEKISKQLHLCYNIVKDRYVRVSNNNQTISGWENGVWKMESIFRKVETDWHMVYLARKEGSSFAYISWKFECGSVGLKVDSISIRTSSQTFQTGTVEWKLRSDTAQVELTGDNSLHSYADFSGATEVILEAELSRGDGDVAWQHTQLFRQSLNDHEENCLEIIIKFSDL
partner: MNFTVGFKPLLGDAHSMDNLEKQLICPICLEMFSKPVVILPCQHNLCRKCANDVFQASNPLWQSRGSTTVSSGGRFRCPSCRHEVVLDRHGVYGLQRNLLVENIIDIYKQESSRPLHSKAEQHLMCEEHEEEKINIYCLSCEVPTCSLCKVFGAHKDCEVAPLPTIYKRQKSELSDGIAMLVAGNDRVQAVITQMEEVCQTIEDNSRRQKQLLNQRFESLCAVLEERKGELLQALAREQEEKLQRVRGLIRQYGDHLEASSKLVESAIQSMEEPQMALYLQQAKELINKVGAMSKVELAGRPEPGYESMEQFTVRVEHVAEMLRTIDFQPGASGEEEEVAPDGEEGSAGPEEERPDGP
B5: E3 ubiquitin-protein ligase TRIM69 (Homo sapiens), Q86WT6 (parent)
chain: MEVSTNPSSNIDPGDYVEMNDSITHLPSKVVIQDITMELHCPLCNDWFRDPLMLSCGHNFCEACIQDFWRLQAKETFCPECKMLCQYNNCTFNPVLDKLVEKIKKLPLLKGHPQCPEHGENLKLFSKPDGKLICFQCKDARLSVGQSKEFLQISDAVHFFTEELAIQQGQLETTLKELQTLRNMQKEAIAAHKENKLHLQQHVSMEFLKLHQFLHSKEKDILTELREEGKALNEEMELNLSQLQEQCLLAKDMLVSIQAKTEQQNSFDFLKDITTLLHSLEQGMKVLATRELISRKLNLGQYKGPIQYMVWREMQDTLCPGLSPLTLDPKTAHPNLVLSKSQTSVWHGDIKKIMPDDPERFDSSVAVLGSRGFTSGKWYWEVEVAKKTKWTVGVVRESIIRKGSCPLTPEQGFWLLRLRNQTDLKALDLPSFSLTLTNNLDKVGIYLDYEGGQLSFYNAKTMTHIYTFSNTFMEKLYPYFCPCLNDGGENKEPLHILHPQ

The first assay covers variants of B1. Conditions: with spf45_human RBM17, Q96I25.
Take R348K: the “effect of a mutation on the interaction” value is reported as “with no effect”.

Regarding C236R, the “effect of a mutation on the interaction” value was “with no effect”.

Variants of B2 are the subject of another assay. Conditions: with goga2_human GOLGA2, Q08379.
Consider W292R, for which the “effect of a mutation on the interaction” value was “disrupting interaction strength”. Same read-out and setting: next, Y334C: “with no effect”; Q306R: “with no effect”.

The variants in another assay derive from B3. Conditions: with actn1_human ACTN1, P12814.
Sequence of actn1_human ACTN1, P12814 (P12814 whole entry): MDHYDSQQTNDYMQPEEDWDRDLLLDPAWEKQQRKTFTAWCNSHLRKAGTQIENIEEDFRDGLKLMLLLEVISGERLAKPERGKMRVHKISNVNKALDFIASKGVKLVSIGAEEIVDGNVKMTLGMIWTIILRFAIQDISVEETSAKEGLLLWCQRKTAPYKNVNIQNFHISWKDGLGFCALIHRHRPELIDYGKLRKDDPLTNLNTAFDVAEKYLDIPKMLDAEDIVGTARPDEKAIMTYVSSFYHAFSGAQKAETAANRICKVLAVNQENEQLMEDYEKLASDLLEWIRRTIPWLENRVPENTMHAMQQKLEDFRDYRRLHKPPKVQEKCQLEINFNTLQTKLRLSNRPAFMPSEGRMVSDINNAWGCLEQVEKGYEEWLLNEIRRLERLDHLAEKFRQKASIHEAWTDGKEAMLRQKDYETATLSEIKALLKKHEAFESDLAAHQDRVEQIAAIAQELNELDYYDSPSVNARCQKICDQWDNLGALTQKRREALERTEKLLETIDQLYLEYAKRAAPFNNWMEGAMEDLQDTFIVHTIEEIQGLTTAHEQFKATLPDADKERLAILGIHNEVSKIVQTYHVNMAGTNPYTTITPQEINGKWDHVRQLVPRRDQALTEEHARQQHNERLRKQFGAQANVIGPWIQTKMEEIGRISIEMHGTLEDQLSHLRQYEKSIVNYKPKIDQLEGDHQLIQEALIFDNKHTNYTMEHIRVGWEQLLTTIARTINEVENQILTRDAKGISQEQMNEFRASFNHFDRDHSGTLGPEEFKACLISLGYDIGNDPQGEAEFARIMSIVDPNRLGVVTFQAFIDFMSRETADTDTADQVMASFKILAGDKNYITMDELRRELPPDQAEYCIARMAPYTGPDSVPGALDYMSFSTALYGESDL
In the case of L327P, the “effect of a mutation on the interaction” value is listed as “disrupting interaction strength”.

Variants of B4 are the subject of a further assay. To be noted: with tri54_human TRIM54, Q9BYV2.
With V184F, the “effect of a mutation on the interaction” value was “with no effect”.

On to F292L, for which the “effect of a mutation on the interaction” value is “with no effect”.

The variants in the next assay derive from B5. To be noted: with at5g1_human ATP5MC1, P05496.
Sequence of at5g1_human ATP5MC1, P05496 (P05496 whole entry): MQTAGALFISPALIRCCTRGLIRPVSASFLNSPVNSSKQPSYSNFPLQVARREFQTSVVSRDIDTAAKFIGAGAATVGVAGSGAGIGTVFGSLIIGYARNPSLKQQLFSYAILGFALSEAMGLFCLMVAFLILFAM
As to A190V, the “effect of a mutation on the interaction” value was “with no effect”.

In the next assay the parent is B5. To be noted: with maga4_human MAGEA4, P43358.
Sequence of maga4_human MAGEA4, P43358 (P43358 whole entry): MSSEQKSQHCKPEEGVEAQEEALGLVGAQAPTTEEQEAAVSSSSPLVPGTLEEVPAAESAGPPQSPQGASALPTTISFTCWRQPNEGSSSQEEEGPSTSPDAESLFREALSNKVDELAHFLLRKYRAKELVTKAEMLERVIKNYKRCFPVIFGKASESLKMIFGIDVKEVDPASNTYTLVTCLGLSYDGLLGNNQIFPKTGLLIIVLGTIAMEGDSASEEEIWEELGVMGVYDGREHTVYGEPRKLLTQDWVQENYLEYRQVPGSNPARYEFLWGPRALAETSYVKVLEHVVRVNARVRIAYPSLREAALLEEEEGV
For A190V, the “effect of a mutation on the interaction” value is listed as “with no effect”.
